Residue numbers refer to the chain shown, from its start.
B1: 5-M9 human-mouse chimeric monoclonal antibody (antibody, human IgG1, V domains shown)
VH: QVQLKESGPVLVAPSQSLSITCTVSGFSLTTYGVQWVRQPPGKGLEWLGAIWAGGNTNYNSALMSRLSISKDNSKSQVFLKMNSLQTDDTAIYYCAKGGYGNAMDYWGQGTSVTVAS
VL: DIVMTQSPSSLTVTAGERVTMSCKSSQSLLNSGNQKNYLTWYQQKSGQPPKLLIYWASTRESGVPDRFTGSGSGTDFTLTISSVQAEDLAVYYCQNDYFFPFTFGSGTKLEIK
notes: Mouse V regions fused to human IgG1 (G1m17) heavy chain constant region and human kappa light chain constant region; also called 5-M9-A; Chi 5-M9
B2: 9-D1 human-mouse chimeric monoclonal antibody (antibody, human IgG1, V domains shown)
VH: EIQLQQSGAELVKPGASVKISCKASGYSFTDYHMNWVRQSHGKSLEWIGNIDPYYGSPTYNHKFKGKATLTVDKSSSTAYMQLISLTSEDSAVYYCANYGRGNSFPYWGQGTLVTVSA
VL: B1 VL with R18K, K36R, S46P, I54L, F99S
notes: Mouse V regions fused to human IgG1 (G1m17) heavy chain constant region and human kappa light chain constant region; also called 9-D1-A
B3: 163E12 human-mouse chimeric positive control antibody (antibody, V domains shown)
VH: QIQLVQSGPELKKPGETVKISCKASGYTFTNYGMNWVKQAPGKGLKWMGWINTNTGEPTYAEEFKGRFAFSLETSASTAYLQINNLKNEDTATYFCARLGFGNAMDYWGQGTSVTVSS
VL: DIVMTQSPSSLTVTAGEKVTMSCKSSQSLLNSGNQKNYLTWYQQKPGQPPKLLIYWASTRESGVPDRFTGSGSGTDFTLTISSVQAEDLAVYYCQNDYSYPLTFGAGTKLELKR
notes: Self-made, expressed in CHOS cells, Protein A purified; also called Benchmarker; Benchmark
B4: 175D10 human-mouse chimeric positive control antibody (antibody, V domains shown)
VH: QVQLQQPGAELVRPGASVKLSCKASGYTFTSYWINWVKQRPGQGLEWIGNIYPSDSYTNYNQKFKDKATLTVDKSSSTAYMQLSSPTSEDSAVYYCTRSWRGNSFDYWGQGTTLTVSS
VL: B3 VL with L102F, A106S, L112I
notes: Self-made, expressed in CHOS cells, Protein A purified; also called Benchmark
B5: h5M9v9 humanized antibody (h5M9 VHv3 / h5M9 VLv3) (antibody, V domains shown)
VH: QVQLKESGPGLVAPSETLSITCTVSGFSLTTYGVQWVRQPPGKGLEWLGAIWAGGNTNYNSALMSRLTISKDNSKSQVSLKMSSVTAADTAIYYCAKGGYGNAMDYWGQGTLVTVSS
VL: B1 VL with T12A, T14S, A15L, S22N, S46P
notes: Human IgG1 (G1m17) heavy and human kappa light constant regions
B6: h5M9V10 humanized antibody (h5M9 VHv4 / h5M9 VLv1) (antibody, human IgG1, kappa, V domains shown)
VH: B5 VH with V85L
VL: DIVMTQSPSSLAVSLGERATMNCKSSQSLLNSGNQKNYLTWYQQKPGQPPKLLIYWASTRESGVPDRFSGSGSGTDFTLTISSVQAEDLAVYYCQNDYFFPFTFGQGTKLEIKR
notes: Human IgG1 (G1m17) / kappa
B7: h5M9V7 humanized antibody (h5M9 VHv3 / h5M9 VLv1) (antibody, human IgG1, kappa, V domains shown)
VH: B5 VH
VL: B6 VL
notes: Human IgG1 (G1m17) / kappa
B8: h5M9V12 humanized antibody (h5M9 VHv4 / h5M9 VLv3) (antibody, human IgG1, kappa, V domains shown)
VH: B5 VH with V85L
VL: B6 VL with A19V, S69T, Q106S
notes: Human IgG1 (G1m17) / kappa

Target: human claudin 18.2 (hCLDN18.2) (human)
Assay: cell-based or functional assay

Binder	EC50 [ng/mL]	Maximum induction fold [fold]
B1	0.000287	40
B2	0.0074	35
B3	0.0195	36.3

Target: T1, human claudin 18.2 (hCLDN18.2) (human)
T1 construct: also called CLDN18 splice variant 2; HEK293-hCLDN18.2
Assay: flow cytometry on hCLDN18.2 low-expressing KATO III cells
Description: (§1) The well-grown HEK293-hCLDN18.2 stably transfected cell line and the hCLDN18.2 low-expressing KATOIII human gastric cancer cell line sorted and enriched by flow cytometry were digested with trypsin, and resuspended to adjust the cell concentration to 1.5×10⁶˜2×10⁶/mL, added to a 96-well U-plate at 100 μL/well (150,000 to 200,000 cells/well). Washing once with PBS buffer containing 1% fetal bovine serum (FBS). The antibody solution (100 μL/well) with the test concentration prepared in PBS (+1% FBS) was added, mixed with the cells, and incubated at 4° C. for 1 hour. Cells were centrifuged at 200 g and washed once with PBS (+1% FBS). […] Cells were centrifuged at 200 g and washed twice with PBS (+1% FBS), then resuspended in 100 μL of PBS (+1% FBS) for flow cytometric analysis. […] In the study of the effect of heat treatment on the binding properties of antibodies, the antibody to be tested was heat-treated at 70° C. for 5 minutes on a PCR machine, and then incubated with cells for binding.

Binder	EC50 [ng/mL]
B4	800

Target: T2, mouse claudin 18.2 (mCLDN18.2) (mouse, UniProt P56857 10-264)
T2 construct: the stomach-type (A2) isoform is meant; also called m hCLDN18.2; HEK293-mCLDN18.2
T2 chain: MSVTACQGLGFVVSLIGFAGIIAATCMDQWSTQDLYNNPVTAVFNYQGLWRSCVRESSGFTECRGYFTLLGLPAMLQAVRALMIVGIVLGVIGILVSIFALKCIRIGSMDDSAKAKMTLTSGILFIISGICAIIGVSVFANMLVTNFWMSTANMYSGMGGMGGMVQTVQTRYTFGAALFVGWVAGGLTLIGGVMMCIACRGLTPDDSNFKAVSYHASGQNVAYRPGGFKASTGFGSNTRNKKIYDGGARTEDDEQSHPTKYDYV
Assay: flow cytometry, HEK293-mCLDN18.2 cells, fixed and non-fixed

Binder	binding result
B3	binds

Target: T1, human claudin 18.2 (hCLDN18.2)
Assay: flow cytometry on HEK293-hCLDN18.2 cells; 1 ug/mL; not heat treated
Description: as §1

Binder	FACS binding signal (read-out unnamed)
B1	341
B5	291
B6	316
B7	296
B8	419
B4	318

Target: T1, human claudin 18.2 (hCLDN18.2)
Assay: flow cytometry on HEK293-hCLDN18.2 cells; 5 ug/mL; not heat treated
Description: as §1

Binder	FACS binding signal (read-out unnamed)
B1	638
B5	589
B6	599
B7	631
B8	589
B4	567

Target: T1, human claudin 18.2 (hCLDN18.2)
Assay: flow cytometry on HEK293-hCLDN18.2 cells; 0.2 ug/mL; not heat treated
Description: as §1

Binder	FACS binding signal (read-out unnamed)
B1	83
B5	66.8
B6	73.7
B7	84.3
B8	103
B4	81.3

Target: T3, mouse claudin 18.1 (mCLDN18.1) (mouse, UniProt P56857 1-264)
T3 construct: the lung-type (A1) isoform is meant; also called HEK293-mCLDN18.1
Assay: flow cytometry, HEK293-mCLDN18.1 cells, paraformaldehyde-fixed and non-fixed

Binder	binding result
B3	no binding

Target: T1, human claudin 18.2 (hCLDN18.2)
Assay: flow cytometry (direct FACS binding, equilibrium at 4 C) on HEK293-hCLDN18.2 cells
Description: After resuscitation of HEK293 cells (HEK293-hCLDN18.2) stably expressing CLDN18.2, they were cultured and passaged until a certain number of cells were reached. The cells were distributed to 1 mL centrifuge tubes at a density of 5×10⁴/mL, and centrifuged for use. […] To eliminate ligand depletion effects (Ligand Depletion), antibody concentration series were prepared using PBS binding buffer diluted to the corresponding ligand depletion volume. HEK293-hCLDN18.2 cells were mixed and incubated with serial concentrations of antibodies formulated to the ligand elimination volume, and incubated at 4° C. until equilibrium.

Binder	Kd [nM]
B1	0.048
B2	0.049
B3	0.137
B4	0.189

Target: T1, human claudin 18.2 (hCLDN18.2)
Assay: flow cytometry on HEK293-hCLDN18.2 cells; 1 ug/mL; antibody heat treated at 70 C for 5 min
Description: as §1

Binder	FACS binding signal (read-out unnamed)
B1	289
B5	242
B6	292
B7	294
B8	411
B4	296

Target: T1, human claudin 18.2 (hCLDN18.2)
Assay: flow cytometry on HEK293-hCLDN18.2 cells; 5 ug/mL; antibody heat treated at 70 C for 5 min
Description: as §1

Binder	FACS binding signal (read-out unnamed)
B1	746
B5	636
B6	607
B7	732
B8	673
B4	600

Target: T1, human claudin 18.2 (hCLDN18.2)
Assay: flow cytometry on HEK293-hCLDN18.2 cells; 0.2 ug/mL; antibody heat treated at 70 C for 5 min
Description: as §1

Binder	FACS binding signal (read-out unnamed)
B1	75.6
B5	59.2
B6	70.8
B7	73.3
B8	90

Reference: patent US20230096452A1 (SHANGHAI ESCUGEN BIOTECHNOLOGY, published 2023)
